Test system: Escherichia coli TOP10
Experiment: shrunken log2 fold change of peptide-encoding DNA abundance (4.5 h post-induction vs induction); higher = less antimicrobial activity (less host growth inhibition)
Conditions: time post-induction: 4.5 h; library: site-saturation at positions 5, 18, 19, 20
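Note: peptides expressed intracellularly from a pBAD plasmid library in pooled LB shake-flask culture, induced with 0.3% L-arabinose, DNA abundance read by NGS, three biological replicates, DESeq2 with apeglm shrinkage.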

Sequence	shrunken log2 fold change
RRIRDRPPRLPRPRPRPWPEPRP	-0.0683
RRIRRRPPRLPRPRPRPWYSPRP	-0.0705
RRIRHRPPRLPRPRPRPKEKPRP	0.0444
RRIRYRPPRLPRPRPRPVISPRP	0.0433
RRIRYRPPRLPRPRPRPSDNPRP	-0.827
RRIRLRPPRLPRPRPRPNPYPRP	-0.0545
RRIRLRPPRLPRPRPRPYTNPRP	-0.6
RRIRTRPPRLPRPRPRPDIYPRP	-0.138
RRIRQRPPRLPRPRPRPIFGPRP	-0.00652
RRIRFRPPRLPRPRPRPPKDPRP	0.248
RRIRLRPPRLPRPRPRPCYGPRP	-0.0306
RRIRYRPPRLPRPRPRPNEIPRP	-0.807
RRIRCRPPRLPRPRPRPCTTPRP	-0.427
RRIRNRPPRLPRPRPRPMSRPRP	-0.094
RRIRWRPPRLPRPRPRPMPHPRP	0.323
RRIRSRPPRLPRPRPRPYEKPRP	-1.08
RRIRWRPPRLPRPRPRPWPRPRP	0.223
RRIRSRPPRLPRPRPRPFYFPRP	-0.55
RRIRERPPRLPRPRPRPENVPRP	-0.0141
RRIRNRPPRLPRPRPRPRLMPRP	-0.142
RRIRRRPPRLPRPRPRPGWKPRP	0.136
RRIRDRPPRLPRPRPRPRSWPRP	0.131
RRIRCRPPRLPRPRPRPTTSPRP	-0.0643
RRIRRRPPRLPRPRPRPEMNPRP	0.406
RRIRSRPPRLPRPRPRPMNIPRP	-0.196

Sequence	shrunken log2 fold change
RRIRKRPPRLPRPRPRPWINPRP	-0.0449
RRIRRRPPRLPRPRPRPHQSPRP	0.128
RRIRLRPPRLPRPRPRPWVYPRP	0.0113
RRIRKRPPRLPRPRPRPSYQPRP	-0.52
RRIRLRPPRLPRPRPRPSCAPRP	-0.00959
RRIRYRPPRLPRPRPRPEVWPRP	0.446
RRIRHRPPRLPRPRPRPKIDPRP	-0.0926
RRIRKRPPRLPRPRPRPFGSPRP	-0.00822
RRIRVRPPRLPRPRPRPCYNPRP	-0.11
RRIRWRPPRLPRPRPRPALSPRP	-0.0314
RRIRQRPPRLPRPRPRPNFEPRP	-0.00188
RRIRSRPPRLPRPRPRPYIPPRP	-1.28
RRIRPRPPRLPRPRPRPRCLPRP	-0.0858
RRIRKRPPRLPRPRPRPFHTPRP	-0.0289
RRIRERPPRLPRPRPRPTCDPRP	0.158
RRIRCRPPRLPRPRPRPGGMPRP	0.215
RRIRLRPPRLPRPRPRPMDDPRP	-0.117
RRIRLRPPRLPRPRPRPGKEPRP	0.0418
RRIRIRPPRLPRPRPRPSVGPRP	-0.261
RRIRDRPPRLPRPRPRPLHDPRP	-0.0658
RRIRPRPPRLPRPRPRPFMSPRP	-0.384
RRIRSRPPRLPRPRPRPKCTPRP	-0.0418
RRIRDRPPRLPRPRPRPHRYPRP	-0.21
RRIRDRPPRLPRPRPRPKLFPRP	0.168
RRIRCRPPRLPRPRPRPIFDPRP	-0.191

Sequence	shrunken log2 fold change
RRIRWRPPRLPRPRPRPVSAPRP	0.316
RRIRDRPPRLPRPRPRPENTPRP	0.17
RRIRGRPPRLPRPRPRPGKKPRP	-0.0917
RRIRKRPPRLPRPRPRPKSQPRP	0.109
RRIRERPPRLPRPRPRPHAEPRP	-0.0335
RRIRQRPPRLPRPRPRPALFPRP	-0.0103
RRIRPRPPRLPRPRPRPDAMPRP	0.319
RRIRPRPPRLPRPRPRPPFHPRP	0.011
RRIRPRPPRLPRPRPRPNGHPRP	-0.0534
RRIRYRPPRLPRPRPRPNTHPRP	-1.02
RRIRFRPPRLPRPRPRPDTFPRP	-0.144
RRIRNRPPRLPRPRPRPLDSPRP	-0.125
RRIRRRPPRLPRPRPRPWDEPRP	0.0108
RRIRERPPRLPRPRPRPQFYPRP	-0.452
RRIRIRPPRLPRPRPRPTATPRP	0.0371
RRIRYRPPRLPRPRPRPKEKPRP	-0.0829
RRIRQRPPRLPRPRPRPCKYPRP	-0.0164
RRIRRRPPRLPRPRPRPCMYPRP	-0.0801
RRIRHRPPRLPRPRPRPETPPRP	0.561
RRIRMRPPRLPRPRPRPQLTPRP	0.743
RRIRQRPPRLPRPRPRPFITPRP	-0.569
RRIRSRPPRLPRPRPRPMWKPRP	-0.101
RRIRQRPPRLPRPRPRPVYKPRP	-0.612
RRIRQRPPRLPRPRPRPNTLPRP	0.013
RRIRHRPPRLPRPRPRPTHIPRP	-0.468

Sequence	shrunken log2 fold change
RRIRKRPPRLPRPRPRPPEDPRP	3.39
RRIRCRPPRLPRPRPRPPVLPRP	-0.169
RRIRRRPPRLPRPRPRPSRFPRP	0.536
RRIRPRPPRLPRPRPRPIERPRP	0.157
RRIRARPPRLPRPRPRPQKDPRP	0.0524
RRIRRRPPRLPRPRPRPQAHPRP	0.544
RRIRTRPPRLPRPRPRPMSDPRP	-0.0819
RRIRRRPPRLPRPRPRPNWNPRP	-0.115
RRIRCRPPRLPRPRPRPKISPRP	-0.712
RRIRLRPPRLPRPRPRPWACPRP	-0.0699
RRIRTRPPRLPRPRPRPATQPRP	1.54
RRIRYRPPRLPRPRPRPYDGPRP	-0.155
RRIRARPPRLPRPRPRPIQNPRP	0.376
RRIRYRPPRLPRPRPRPPENPRP	-0.145
RRIRFRPPRLPRPRPRPEYDPRP	0.0271
RRIRNRPPRLPRPRPRPVPVPRP	-0.0667
RRIRVRPPRLPRPRPRPNYEPRP	-0.0505
RRIRRRPPRLPRPRPRPTFGPRP	0.337
RRIRFRPPRLPRPRPRPFKFPRP	-0.107
RRIRCRPPRLPRPRPRPYLHPRP	-1.18
RRIRRRPPRLPRPRPRPDIVPRP	0.17
RRIRFRPPRLPRPRPRPCYQPRP	-0.229
RRIRWRPPRLPRPRPRPQNHPRP	-0.585
RRIRPRPPRLPRPRPRPVQQPRP	0.378
RRIRIRPPRLPRPRPRPVPFPRP	-0.264

Sequence	shrunken log2 fold change
RRIRSRPPRLPRPRPRPKSWPRP	0.392
RRIRARPPRLPRPRPRPHMWPRP	-0.000358
RRIRDRPPRLPRPRPRPAQLPRP	-0.0667
RRIRNRPPRLPRPRPRPGALPRP	0.0726
RRIRRRPPRLPRPRPRPNKNPRP	0.153
RRIRKRPPRLPRPRPRPVNWPRP	0.192
RRIRVRPPRLPRPRPRPTFQPRP	-0.0952
RRIRTRPPRLPRPRPRPWMVPRP	-0.208
RRIRKRPPRLPRPRPRPWTFPRP	0.489
RRIRGRPPRLPRPRPRPLQWPRP	0.534
RRIRERPPRLPRPRPRPCTCPRP	-0.00884
RRIRGRPPRLPRPRPRPSMHPRP	0.421
RRIRNRPPRLPRPRPRPAICPRP	-0.0274
RRIRGRPPRLPRPRPRPRVEPRP	0.432
RRIRCRPPRLPRPRPRPKHTPRP	-0.0232
RRIRLRPPRLPRPRPRPLYIPRP	-0.932
RRIRKRPPRLPRPRPRPKVFPRP	-0.0531
RRIRPRPPRLPRPRPRPHVVPRP	-0.136
RRIRTRPPRLPRPRPRPQRNPRP	-0.115
RRIRMRPPRLPRPRPRPHMCPRP	0.000241
RRIRTRPPRLPRPRPRPATTPRP	-0.181
RRIRFRPPRLPRPRPRPGTLPRP	-0.422
RRIRMRPPRLPRPRPRPCYTPRP	-0.0524
RRIRLRPPRLPRPRPRPTLSPRP	-0.0659
RRIRLRPPRLPRPRPRPPAYPRP	0.0545

Sequence	shrunken log2 fold change
RRIRFRPPRLPRPRPRPCINPRP	-0.0523
RRIRYRPPRLPRPRPRPLMNPRP	-0.217
RRIRARPPRLPRPRPRPTVQPRP	0.549
RRIRNRPPRLPRPRPRPFYEPRP	-0.233
RRIRARPPRLPRPRPRPFQGPRP	0.0242
RRIRGRPPRLPRPRPRPTIVPRP	0.779
RRIRARPPRLPRPRPRPINRPRP	0.0108
RRIRSRPPRLPRPRPRPRYKPRP	-0.154
RRIRTRPPRLPRPRPRPIIEPRP	-0.565
RRIRPRPPRLPRPRPRPTNFPRP	0.221
RRIRRRPPRLPRPRPRPMIDPRP	-0.1
RRIRWRPPRLPRPRPRPCMKPRP	0.00396
RRIRVRPPRLPRPRPRPCMIPRP	-0.792
RRIRWRPPRLPRPRPRPDWDPRP	0.243
RRIRIRPPRLPRPRPRPEICPRP	-0.0162
RRIRYRPPRLPRPRPRPANIPRP	-0.0107
RRIRFRPPRLPRPRPRPGPCPRP	0.0242
RRIRTRPPRLPRPRPRPNWTPRP	0.00155
RRIRHRPPRLPRPRPRPHWPPRP	-0.25
RRIRCRPPRLPRPRPRPCNNPRP	-0.31
RRIRNRPPRLPRPRPRPTLMPRP	0.0843
RRIRLRPPRLPRPRPRPFVLPRP	-0.513
RRIRNRPPRLPRPRPRPKATPRP	-0.0881
RRIRDRPPRLPRPRPRPVSGPRP	0.088
RRIRIRPPRLPRPRPRPWCIPRP	-0.0951

Reference: the supplement of paper PMC9112550, “Optimization of the antimicrobial peptide Bac7 by deep mutational scanning” (BMC Biology, 2022)
